Experimental data from patent publication US20230340555A1, “PRODUCTION OF GLYCOSYLATED CANNABINOIDS” (WILLOW BIOSCIENCES, INC., priority 2020, published 2023).

Tests used:
[1] = test system: CN3 yeast strain host cells; assay: Detection of glycosylated cannabinoids and cannabinoid precursors in yeast cells expressing UDP-glycosyl transferase (HPLC-MS); type: cell-based; set-up: key to CBDA-glc / OLA-glc / CBGA-glc / CBGA-(glc)2 / CBD-glc / CBD-(glc)2 / OLA-(glc)2 / CBGA-glucuronic acid: (+) represents the lowest detected quantities; (++), (+++), and (++++) signify relative increasing intermediate detected levels; (++), (+++), and (++++) signify relative increasing intermediate detected levels; (++), (+++), and (++++) signify relative increasing intermediate detected levels; (+++++) represents the highest detected quantities; No detectable levels of a glycosylated cannabinoid compound or glycosylated cannabinoid precursor compound are indicated by “n.d.”; details: for production of glycosylated cannabinoids or cannabinoid precursor compounds: pellet or supernatant of recombinant yeast host cells transformed with the UGT; for CBD-(glc)2 / CBD-glc: 0.5 g/L CBD
Excerpt: CN3 yeast strain host cells were transformed as described in Example 1 with one of the following heterologous UGT genes: (1) AtUGT73C6, (2) AtUGT73B4, (3) AtUGT71 D1, (4) AtUGT76E12, (5) AtUGT88A1, (6) HaUGT76G1-L, (7) At5g49690, (8) AtUGT76C4, (9) CsUGT73C6, (10) SrUGT76C1, (11) AtUGT85A3, (12) AtUGT73B1, (13) Atg65550, (14) AtUGT76B1, (15) ATUGT76B1, (16) CsUGT75B2, (17) CsUGT73B4, (18) CsUGT73B1, (19) CsUGT75D1-DN11028, and (20) CsUGT71D1-DN48028. The transformed host cells were pre-grown overnight in yeast extract peptone dextrose (YPD) growth medium and then back diluted into yeast extract peptone galactose (YPG) to OD600 = 0.2. […] Strains were incubated for 20 h at 28° C. rotating at 600 RPM in an EPOCH|2 microplate reader (BioTek). Subsequently, samples were treated with an extraction solvent (80 % Acetonitrile, 20 % Methanol) for 1 hour rotating at 100 RPM. After 20 minutes centrifugation at 12,000 RPM, the supernatant was filtered with a basix 13 mm syringe filter (0.22 µm pore size, Nylon membrane) and transferred to a new tube for further analysis.
Glycosylated cannabinoid compounds and glycosylated cannabinoid precursor compounds were assayed in the supernatant and the cellular pellet employing HPLC and HPLC-MS analysis. HPLC and HPLC-MS analysis was carried out as described below to detect the following glycosylated cannabinoid and cannabinoid precursor compounds: CBGA monoglucoside, CBGA diglucoside, CBDA monoglucoside, CBDA diglucoside, CBGA glucuronic acid, CBD monoglucoside, CBD diglucoside, olivetolic acid monoglucoside (“OliAcid monoglucoside”), olivetolic acid diglucoside (“OliAcid diglucoside”).
HPLC analysis was carried out on an Agilent Technologies 1290 Infinity system, consisting of a vacuum degasser, a binary pump, a thermostated autosampler, a thermostated column compartment and a diode array detector (DAD). A Zorbax Eclipse Plus EC-18 column (2.1 × 50 mm, 1.8 µm, Agilent, USA) was used with a mobile phase composed of 0.1% formic acid in both (A) water with 0.2 % Formic Acid and (B) Acetonitrile with 0.2 % Formic Acid. The chromatographic conditions were set as follows: 0.0-8.0 min linear gradient from 5 to 95% B; 8.1-9.09 min […], 9.10-11.0 min 5 to 95% A for equilibration of the column with the initial conditions. The flow rate was set at 0.4 ml/min. The column temperature was set at 40° C. The sample injection volume was 5 µL. The UV/DAD acquisitions were carried out in the range 190-400 nm and chromatograms were acquired at 265 and 350 nm.
HPLC-MS analysis was carried out to confirm the identity of the HPLC peaks using an Agilent Technologies 6530 Accurate-Mass quadrupole time of flight (QToF) mass spectrometer operating in negative ionization (ESI -) mode. The mass spectrometer experimental parameters were set as follows: the capillary voltage was 3.5 kV, the nebulizer (N2) pressure was 35 psi, the drying gas temperature was 350° C., the drying gas flow was 11 L/min and the skimmer voltage was 65 V. Data were acquired by Agilent Mass Hunter software. The mass spectrometer was operated in full-scan mode in the m/z range 50-1100. Extracted ion chromatograms (EICs) were obtained with an accuracy of 10 ppm m/z from total ion chromatogram (TIC) employing the m/z corresponding to the molecular ions [M-H]^- 385.1504 for Olivetolic Acid Mono-Glucoside, 547.2032 for Olivetolic Acid di-Glucoside, 521.2756 for CBGA Mono-Glucoside, 683.3284 for CBGA Di-Glucoside, 535.2549 for CBGA Glucuronic Acid, 519.2600 for CBDA Mono-Glucoside, 475.2701 for CBD Mono-Glucoside, 637.3302 for CBD Di-Glucoside.
The glycosylated cannabinoid compounds and glycosylated cannabinoid precursor compounds were detected in a relative and semi-quantitative fashion. […]

[2] = test system: bacterial strain BL21 (DE3); assay: CBDA depletion in BL21 (DE3) strains expressing UGTs (UHPLC-MS); type: cell-based; details: 0.1 mM CBDA, induced with 100 µM IPTG for 4h at 37° C. vs controls without induction
Excerpt: The following cDNAs encoding UGTs from Arabidopsis thaliana, Cannabis sativa and Helianthus annuus UGTs were cloned into pDONOR-zeo (as described in Example 1) and then recombined into the prokaryotic expression vector pDEST14: AtUGT73C6 (SEQ ID NO: 3), AtUGT88A1 (SEQ ID NO: 5), AtUGT71 D1 (SEQ ID NO: 7), AtUGT73B4 (SEQ ID NO: 9), AtUGT76C4 (SEQ ID NO: 11), AtUGT76E12 (SEQ ID NO: 13), and At5g49690 (SEQ ID NO: 17), CsUGT73C6 (SEQ ID NO: 15), HaUGT76G1L (SEQ ID NO: 1), and SrUGT76G1 (SEQ ID NO: 19). Host cells from the bacterial strain BL21 (DE3) were transformed individually pDEST14 vector.
A BL21 (DE3) single colony was inoculated in liquid media and incubated at 37° C. overnight. The bacterial cultures were diluted to a final 0.6 OD and CBDA was added to a final concentration of 0.1 mM. The cultures were split, and half was induced with 100 µM IPTG for 4h at 37° C. to express the UGTs and the other half was kept as controls without induction of UGT expression.
Subsequently, samples were treated with a 1:1 volume of acetonitrile for 15 minutes at 250 RPM. After 30 minutes centrifugation at 4,000 RPM, samples were diluted 1000-fold in the same solvent for further analysis.
CBDA depletion was assayed employing UHPLC-MS analysis. The instrument used was a Thermo Vanquish UHPLC connected to a Thermo TSQ Altis mass spectrometer. The UHPLC consists of a vacuum degasser, a ternary pump, a thermostated autosampler held at 5° C., and a thermostated column compartment. An Accucore C18 (150 × 2.2 mm, 2.6 µm, Thermo, USA) was used. The mobile phase is water with 0.1 % formic acid (A) and acetonitrile with 0.1 % formic acid (B) on a linear gradient (see Table 5). The flow rate was set at 0.800 mL/min. The column temperature was set at 30° C. The sample injection volume was 1 µL.
MS analyses were carried out in order to ensure the identity of the peaks and were performed on a Thermo TSQ Altis triple quadrupole mass spectrometer using electrospray ionization in negative mode. Compounds were analyzed using selected reaction monitoring using two ion pairs for quantitation and confirmation respectively.

[3] = 20 h growth, detected in PELLET, 0.05 mM hexanoic acid
[4] = 20 h growth, detected in PELLET
[5] = 20 h growth, detected in SUPERNATANT, 0.2 mM hexanoic acid
[6] = 20 h growth, detected in SUPERNATANT

B1: CsUGT73B1: UDP-glycosyl transferase from Cannabis sativa, amino acid sequence SEQ ID NO: 36 (protein, listed as Cannabis sativa)
chain: MSKEIWVVPFFGQGHLFPSMELCKQIASRNINTLLVIPSNLSFSIPSSLRQYPLLQIVEIQPTSAPSAQPGPDPIDQPPHGNPDQFEMGLENLLQAQVTGPDSVRPICAILDVMMDWTTEVFNKFDIPTIGFFTSGACSAAMEYGLWKAQPIDLKPGEVRLLPGLPEEMAVTYLDTNQRPHQPPGPPLHLFGVGHQGPFVDGAHRPPGPPPPPYLGRAGPRQRGPPKHGSQPPWVDGLKGSIALMINTCDYLERPFIEYLTKQIGKPVWGVGPLLPEQFWNSVSSNSILHDHEIRTNRQSNVSEDDVIQWLDSKPRGSVLYVCFGTEVSPSMEEYSELADALEASTQPFIWVVHSGTGRSGPPPSRGPTQEDYFPHGLASQVGPKGLIINGWAPQLLILSHSSIGGFLTHCGWNSTVEAIGLGVPLLAWPIRGDQNYNAKLVVAHLKLGFMISDNLSEKIKKHEIVKGIKTLMGDDDIKSRARNLAAIFQKGFPISSTTNLDVFRDMINNFT
- production of glycosylated cannabinoids or cannabinoid precursor compounds [1]: No production

B2: CsUGT75B2: UDP-glycosyl transferase from Cannabis sativa, amino acid sequence SEQ ID NO: 32 (protein, listed as Cannabis sativa)
chain: MVQPRFLILAFPLQGTINPCLNLANQLIRVANAQVTFVTSVNAHRLIMTTHTVATTSNNLLSFSPFFDGYDEGVTDGKGFHDHFVEFKRRGWQAVGDILELGFKEGRPYTCLVYSILLTWAADVAATHNVPASMFWMQPATVFDVYYYYFHGHKEIICANTKNHSFSLSFPRIPLTMNLKDLPSLMVDSNYSYILTMLHEMYKDFEKESNNTKIILVNTFDELEPDALRAINKFNLIGIGPLITSKTSFSFRNYIEWLNTKPKKTVVYVSFGSILILKKQQMDEIAKGLLEFGHPFLWVIKEKNSSSKEGVHEDNIKNELSYKEELEKLGMIVPWCSQMEVLRNESLGCFVTHCGWNSTLESIVSGVPVVAFPQWTDQQTNAKLIEEMWKIGVRVKPDEDGIVKSEEIKRCLELVMSKNENRTEIVKNVKKWQNLTKEAMREGGSSEKNLITFVKSIHQ
- production of glycosylated cannabinoids or cannabinoid precursor compounds [1]: No production

B3: CsUGT73B4: UDP-glycosyl transferase from Cannabis sativa, amino acid sequence SEQ ID NO: 34 (protein, listed as Cannabis sativa)
chain: MSKGHTIPLLHLARVLLNRHVTVTIFTTPANRSFITKFLPATSAAIVELPFPKNIPGVPNGVENTEDFPTMSMSMFYSLVLGTQNMKPDLDRALENIQTPVSFMVSDGFLWWTLDSASKLGFPRLVFYGMSHYAMAVYHSLFNSKKPKQTETETVVSDFPWIKLTRSEYDPSAQNGEDQSLAHEFMSKATEATNNSFGMIYNSFYELEPMFTDYWNQKVGPKSWPLGPLCLHDMKIESRGLVVHPWLDEKESSSVLYVAFGSQATVSSEQVREIAKGLEYSNVNFFWVLRKLEPEENKFLEEFEKRVKNRGIVVRDWVNQMEILKHKSVKGFFSHCGWNSVMESLSAGLPILGFPMMAEQHINAKMVVEEIKIGLRVKSYDGSLNGIVKSEEVSKMVKELMEGEVGKEMRKKVEEFAVMAHKAVQKGGSSWETLDLLLSSTKQRIHHY
- production of glycosylated cannabinoids or cannabinoid precursor compounds [1]: No production

B4: AtUGT73C6: UDP-glycosyl transferase from Arabidopsis thaliana, amino acid sequence SEQ ID NO: 4 (protein, listed as Arabidopsis thaliana)
chain: MAFEKNNEPFPLHFVLFPFMAQGHMIPMVDIARLLAQRGVLITIVTTPHNAARFKNVLNRAIESGLPINLVQVKFPYQEAGLQEGQENMDLLTTMEQITSFFKAVNLLKEPVQNLIEEMSPRPSCLISDMCLSYTSEIAKKFKIPKILFHGMGCFCLLCVNVLRKNREILDNLKSDKEYFIVPYFPDRVEFTRPQVPVETYVPAGWKEILEDMVEADKTSYGVIVNSFQELEPAYAKDFKEARSGKAWTIGPVSLCNKVGVDKAERGNKSDIDQDECLEWLDSKEPGSVLYVCLGSICNLPLSQLLELGLGLEESQRPFIWVIRGWEKYKELVEWFSESGFEDRIQDRGLLIKGWSPQMLILSHPSVGGFLTHCGWNSTLEGITAGLPMLTWPLFADQFCNEKLVVQILKVGVSAEVKEVMKWGEEEKIGVLVDKEGVKKAVEELMGESDDAKERRRRAKELGESAHKAVEEGGSSHSNITFLLQDIMQLAQSNN
- CBDA-glc [1, 3]: +++
- CBGA-(glc)2 [1, 3]: ++
- CBGA-glc [1, 3]: ++++
- CBGA-glucuronic acid [1, 3]: ++
- OLA-(glc)2 [1, 3]: ++
- OLA-glc [1, 3]: +++
- CBD-(glc)2 [1, 4]: ++
- CBD-glc [1, 4]: +++
- CBGA-(glc)2 [1, 5]: +
- CBGA-glc [1, 5]: +
- OLA-glc [1, 5]: +++
- CBD-(glc)2 [1, 6]: ++
- CBD-glc [1, 6]: +++
- production of glycosylated cannabinoids or cannabinoid precursor compounds [1]: detected
- decrease in CBDA content [2]: 12%
